Source: patent US20250002588A1 (DIAGONAL THERAPEUTICS, published 2025)
Residue numbers refer to the chain shown, from its start.

B1: DGL651 (bispecific antibody)
chain 1: not shown
chain 2: EVQLLESGGGLVQPGGSLRLSCAASGFTFSDYYMTWIRQAPGKGLEWVSSISGGSTYYADSRKGRFTISRDNSENTLYLQMNSLRAEDTAVYYCARDFGVAGWFGQYGMDVWGQGTLVTVSSGGGGSGGGGSGGGGSQSVLTQPPSASGTPGQRVTISCTGSSSNIGAGYDVHWYQQLPGTAPKLLIYRSNQRPSGVPDRFSGSKSGTSASLAISGLRSEDEADYYCSSYAGNYNLVFGGGTKLTVLDKTHTCPPCPAPEAAGAPSVFLFPPKPKDTLMISRTPEVTCVVVDVSHEDPEVKFNWYVDGVEVHNAKTKPREEQYNSTYRVVSVLTVLHQDWLNGKEYKCKVSNKALPAPIEKTISKAKGQPREPQVCTLPPSRDELTKNQVSLSCAVKGFYPSDIAVEWESNGQPENNYKTTPPVLDSDGSFFLVSKLTVDKSRWQQGNVFSCSVMHEALHNHYTQKSLSLSPGWSHPQFEK
B2: DGL652 (bispecific antibody)
chain 1: not shown
chain 2: B1 chain 2
B3: DGL733 (bispecific antibody)
chain 1: B1 chain 2 with S55T
chain 2: not shown
B4: DGL868 (bispecific antibody)
chain 1: not shown
chain 2: B1 chain 2 with T35N, R62V, Q106Y
B5: DGL653 (bispecific antibody)
chain 1: not shown
chain 2: B1 chain 2
B6: DGL737 (bispecific antibody)
chain 1: not shown
chain 2: B1 chain 2
B7: DGL865 (bispecific antibody)
chain 1: not shown
chain 2: B1 chain 2 with Y32S, T35S, R62V, W103Y
B8: DGL862 (bispecific antibody)
chain 1: not shown
chain 2: B1 chain 2 with T35N, R62V, Y107F
B9: DGL863 (bispecific antibody)
chain 1: not shown
chain 2: B1 chain 2 with Y32S, T35S, R62V, W103Y
B10: DGL867 (bispecific antibody)
chain 1: not shown
chain 2: B1 chain 2 with T35N, R62V, Q106Y
B11: DGL736 (bispecific antibody)
chain 1: not shown
chain 2: B1 chain 2
B12: DGL654 (bispecific antibody)
chain 1: B1 chain 2 with T35N, R62V, Y107F
chain 2: not shown
B13: DGL731 (bispecific antibody)
chain 1: B1 chain 2 with A101S
chain 2: not shown
B14: DGL860 (bispecific antibody)
chain 1: not shown
chain 2: B1 chain 2 with T35N, R62V, Y107F
B15: DGL864 (bispecific antibody)
chain 1: not shown
chain 2: B1 chain 2 with Y32S, T35S, R62V, W103Y
B16: DGL656 (bispecific antibody)
chain 1: B1 chain 2 with T35N, R62V, Q106Y
chain 2: not shown
B17: DGL861 (bispecific antibody)
chain 1: not shown
chain 2: B1 chain 2 with T35N, R62V, Y107F
B18: DGL732 (bispecific antibody)
chain 1: B1 chain 2 with Y33W
chain 2: not shown
B19: DGL730 (bispecific antibody)
chain 1: B1 chain 2 with F98Y
chain 2: not shown
B20: DGL735 (bispecific antibody)
chain 1: B1 chain 2 with Y33W, S55T, A101S
chain 2: not shown
B21: DGL866 (bispecific antibody)
chain 1: not shown
chain 2: B1 chain 2 with T35N, R62V, Q106Y
B22: DGL655 (bispecific antibody)
chain 1: B1 chain 2 with Y32S, T35S, R62V, W103Y
chain 2: not shown
B23: DGL734 (bispecific antibody)
chain 1: B1 chain 2 with Y33W, S55T, F98Y
chain 2: not shown
B24: DGL631 (bispecific antibody)
chain 1: not shown
chain 2: EVQLLESGGGLVQPGGSLRLSCAASGFTFSNAWMNWVRQAPGKGLEWVSSISSSSSYIYYADSVKGRFTISRDNSKNTLYLQMNSLRAEDTAVYYCARAVAAGGMFWGLDQWGQGTLVTVTSSGGGGSGGGGSGGGGSQSVLTQPPSASGTPGQRVTISCSGSRSNIGSNSVHWYQQLPGTAPKLLIYGNSNRPSGVPDRFSGSKSGTSASLAISGLRSEDEADYYCQSYDSSLNDHVVFGGGTKLTVLDKTHTCPPCPAPEAAGAPSVFLFPPKPKDTLMISRTPEVTCVVVDVSHEDPEVKFNWYVDGVEVHNAKTKPREEQYNSTYRVVSVLTVLHQDWLNGKEYKCKVSNKALPAPIEKTISKAKGQPREPQVCTLPPSRDELTKNQVSLSCAVKGFYPSDIAVEWESNGQPENNYKTTPPVLDSDGSFFLVSKLTVDKSRWQQGNVFSCSVMHEALHNHYTQKSLSLSPGWSHPQFEK
B25: DGL621 (bispecific antibody)
chain 1: not shown
chain 2: B24 chain 2
B26: DGL630 (bispecific antibody)
chain 1: not shown
chain 2: B24 chain 2
B27: DGL622 (bispecific antibody)
chain 1: not shown
chain 2: B24 chain 2
B28: DGL632 (bispecific antibody)
chain 1: not shown
chain 2: B24 chain 2
B29: DGL623 (bispecific antibody)
chain 1: not shown
chain 2: B24 chain 2

Experiments:
[1] = biological target: ALK-1/BMPR-2 receptor pair of the PathHunter U2Os dimerization cells (DiscoverX 93-0962C3) (UniProt P37023 22-503; Q13873 27-1038); test: cell-based or functional assay
[2] = biological target: human ALK1 protein (Sino Biological, #10066-H08H) (human, UniProt P37023 22-118); test: ELISA, coated human ALK1
Experimental: These binders were then tested using an ELISA assay. High binding plates (Corning, 9018) were coated with either 2 μg/ml of human BMPRII protein (Sino Biological, #10551-H08H) or 2 μg/ml of human ALK1 protein (Sino Biological, #10066-H08H) overnight at 4C. The plates were then washed three times with wash buffer (R&D Systems, WA126). […] The plates were then washed three times with wash buffer and DGL antibodies or controls, which were diluted with PBS and 0.1% BSA. The antibodies were incubated for one hour at room temperature and then the plates were washed three times with wash buffer. The plates were then incubated with mouse anti-human IgG Fc secondary—HRP (diluted with PBS/0.1% BSA); 100 ul per well at 2 μg/ml and incubated at room temperature for one hour. The plate was washed three times in wash buffer and then 100 ul TMB (R&D Systems, DY9998B, substrate reagent pack). After the wells turn blue, 50 ul of stop solution (R&D Systems, DY994) was added to each well and the absorbance of the plate was read at 450 nm. results can be found in Table 8.

Sequence of human ALK1 protein (Sino Biological, #10066-H08H) (P37023 22-118 limits assumed): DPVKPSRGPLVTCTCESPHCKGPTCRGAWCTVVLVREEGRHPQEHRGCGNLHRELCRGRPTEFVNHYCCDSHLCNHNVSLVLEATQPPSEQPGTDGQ
Sequence of ALK-1/BMPR-2 receptor pair of the PathHunter U2Os dimerization cells (DiscoverX 93-0962C3) (P37023 22-503, chain 1 of 2): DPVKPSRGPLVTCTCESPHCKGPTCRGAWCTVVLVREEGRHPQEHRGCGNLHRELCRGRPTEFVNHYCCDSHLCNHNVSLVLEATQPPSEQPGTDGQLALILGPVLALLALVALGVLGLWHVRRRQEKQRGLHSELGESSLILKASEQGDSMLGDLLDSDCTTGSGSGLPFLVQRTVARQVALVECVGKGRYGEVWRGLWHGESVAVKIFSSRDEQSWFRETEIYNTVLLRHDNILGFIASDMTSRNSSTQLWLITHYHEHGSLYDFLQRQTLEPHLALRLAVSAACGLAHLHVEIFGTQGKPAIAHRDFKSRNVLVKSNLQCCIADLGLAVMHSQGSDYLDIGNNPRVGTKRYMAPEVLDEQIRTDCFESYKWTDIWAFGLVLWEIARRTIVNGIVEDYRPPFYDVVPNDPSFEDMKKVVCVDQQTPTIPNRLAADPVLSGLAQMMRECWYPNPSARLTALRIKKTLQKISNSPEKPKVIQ
Sequence of ALK-1/BMPR-2 receptor pair of the PathHunter U2Os dimerization cells (DiscoverX 93-0962C3) (Q13873 27-1038, chain 2 of 2): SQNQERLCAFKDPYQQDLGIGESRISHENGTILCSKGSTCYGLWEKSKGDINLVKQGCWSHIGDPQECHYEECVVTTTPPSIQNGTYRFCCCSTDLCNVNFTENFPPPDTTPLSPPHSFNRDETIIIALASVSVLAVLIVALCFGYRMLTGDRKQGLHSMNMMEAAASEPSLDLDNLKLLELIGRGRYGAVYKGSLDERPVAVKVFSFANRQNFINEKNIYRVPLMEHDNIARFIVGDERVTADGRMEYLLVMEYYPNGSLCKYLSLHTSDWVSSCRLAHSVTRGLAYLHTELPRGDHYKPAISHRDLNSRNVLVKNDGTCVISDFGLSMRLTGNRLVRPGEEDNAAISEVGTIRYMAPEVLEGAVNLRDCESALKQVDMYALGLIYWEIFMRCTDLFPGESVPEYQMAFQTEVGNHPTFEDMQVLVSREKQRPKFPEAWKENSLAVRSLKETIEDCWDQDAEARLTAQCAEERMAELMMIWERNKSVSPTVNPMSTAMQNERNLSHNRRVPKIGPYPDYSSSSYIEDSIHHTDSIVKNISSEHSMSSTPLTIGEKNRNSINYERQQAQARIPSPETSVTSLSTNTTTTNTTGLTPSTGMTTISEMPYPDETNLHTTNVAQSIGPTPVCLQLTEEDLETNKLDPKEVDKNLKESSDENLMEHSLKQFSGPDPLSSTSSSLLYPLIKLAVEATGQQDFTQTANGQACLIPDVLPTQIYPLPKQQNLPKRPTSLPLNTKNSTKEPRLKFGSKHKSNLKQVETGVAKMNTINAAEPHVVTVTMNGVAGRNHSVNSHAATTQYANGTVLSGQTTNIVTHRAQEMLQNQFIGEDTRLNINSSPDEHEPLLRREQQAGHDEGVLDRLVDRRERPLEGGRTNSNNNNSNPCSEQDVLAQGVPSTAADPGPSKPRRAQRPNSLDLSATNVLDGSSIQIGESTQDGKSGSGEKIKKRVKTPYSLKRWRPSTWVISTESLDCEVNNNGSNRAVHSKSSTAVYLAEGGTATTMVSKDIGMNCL

Row | Binder | % Emax BMP9 [1] [%] | Emax (RLU) [1] [RLU] | Abs450 1 nM [2] | Abs450 10 nM [2] | Abs450 100 nM [2]
1 | B1 | 72 | 1.76e+07 | – | – | –
2 | B2 | 60 | 1.48e+06 | – | – | –
3 | B3 | 106 | 1.65e+06 | – | – | –
4 | B4 | 67 | 1.71e+06 | – | – | –
5 | B5 | 58 | 1.43e+06 | – | – | –
6 | B6 | 77 | 1.2e+06 | – | – | –
7 | B7 | 30 | 755000 | – | – | –
8 | B8 | 83 | 2.13e+06 | – | – | –
9 | B9 | 24 | 604000 | – | – | –
10 | B10 | 58 | 1.48e+06 | – | – | –
11 | B11 | 73 | 1.13e+06 | – | – | –
12 | B12 | 76 | 1.87e+06 | – | – | –
13 | B13 | 100 | 1.56e+06 | – | – | –
14 | B14 | 79 | 2.01e+06 | – | – | –
15 | B15 | 22 | 553000 | – | – | –
16 | B16 | 55 | 1.36e+06 | – | – | –
17 | B17 | 81 | 2.08e+06 | – | – | –
18 | B18 | 54 | 845000 | – | – | –
19 | B19 | 22 | 342000 | – | – | –
20 | B20 | 68 | 1.06e+06 | – | – | –
21 | B21 | 45 | 1.15e+06 | – | – | –
22 | B22 | 18 | 437000 | – | – | –
23 | B23 | 14 | 217000 | – | – | –
24 | B24 | 13 | 470000 | 0.07 | 0.19 | 0.7
25 | B25 | 30 | 1.09e+06 | 0.17 | 0.95 | 1.58
26 | B26 | 5 | 168000 | 0.07 | 0.07 | 0.08
27 | B27 | 25 | 936000 | 0.15 | 0.75 | 1.58
28 | B28 | 4 | 130000 | 0.06 | 0.05 | 0.06
29 | B29 | 30 | 1.11e+06 | 0.14 | 0.61 | 1.43
